Data reported in paper PMC4854876.

Target: human hemoglobin (human) (UniProt P69905)
Test: SPR

UniProt P69905, sequence (P69905 whole entry, chain 1 of 2): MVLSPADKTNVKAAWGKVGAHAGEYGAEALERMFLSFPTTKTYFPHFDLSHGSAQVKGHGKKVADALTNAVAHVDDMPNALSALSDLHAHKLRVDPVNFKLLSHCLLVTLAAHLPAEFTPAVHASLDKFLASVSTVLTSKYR
UniProt P69905, sequence (P68871 whole entry, chain 2 of 2, further chain): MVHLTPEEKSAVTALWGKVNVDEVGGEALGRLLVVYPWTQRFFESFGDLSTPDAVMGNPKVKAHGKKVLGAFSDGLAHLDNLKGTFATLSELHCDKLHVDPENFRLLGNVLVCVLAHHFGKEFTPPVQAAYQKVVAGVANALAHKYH

Substance: Spbhp-37 recombinant protein without the GST tag (natural protein)
- Kd: 357 nM
